# T1: DLG3_1, Q92796
# T1 sequence (Q92796 125-227, limits assumed, looked up): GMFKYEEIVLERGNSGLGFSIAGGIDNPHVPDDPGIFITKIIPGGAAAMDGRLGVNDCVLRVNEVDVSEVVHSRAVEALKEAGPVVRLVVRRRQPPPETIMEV
# T2: DFNB31_2, Q9P202
# T2 sequence (Q9P202 274-371, limits assumed, looked up): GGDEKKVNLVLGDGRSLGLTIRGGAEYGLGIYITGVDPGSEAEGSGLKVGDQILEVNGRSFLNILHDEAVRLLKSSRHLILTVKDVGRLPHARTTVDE
# T3: MPDZ_5, O75970
# T3 sequence (O75970 695-796, limits assumed, looked up): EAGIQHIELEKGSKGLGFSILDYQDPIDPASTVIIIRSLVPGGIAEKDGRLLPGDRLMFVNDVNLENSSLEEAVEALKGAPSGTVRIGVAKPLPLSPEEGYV
# T4: FRMPD1, Q5SYB0
# T4 sequence (Q5SYB0 52-145, limits assumed, looked up): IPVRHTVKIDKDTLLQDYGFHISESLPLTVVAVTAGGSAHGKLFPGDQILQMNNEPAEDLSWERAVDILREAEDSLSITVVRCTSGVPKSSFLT
# T5: NHERF3_1, Q5T2W1
# T5 sequence (Q5T2W1 4-100, limits assumed, looked up): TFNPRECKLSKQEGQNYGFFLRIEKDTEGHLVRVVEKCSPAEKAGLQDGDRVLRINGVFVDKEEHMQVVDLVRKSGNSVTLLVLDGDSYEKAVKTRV
# T6: MPDZ_10, O75970
# T6 sequence (O75970 1624-1722, limits assumed, looked up): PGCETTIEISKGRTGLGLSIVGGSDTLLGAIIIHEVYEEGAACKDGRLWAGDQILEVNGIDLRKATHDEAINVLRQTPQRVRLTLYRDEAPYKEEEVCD
# T7: RADIL, Q96JH8
# T7 sequence (Q96JH8 971-1071, limits assumed, looked up): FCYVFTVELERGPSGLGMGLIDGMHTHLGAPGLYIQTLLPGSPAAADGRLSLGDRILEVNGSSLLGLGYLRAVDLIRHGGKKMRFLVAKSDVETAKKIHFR
# T8: PARD3B_1, Q8TEW8
# T8 sequence (Q8TEW8 196-299, limits assumed, looked up): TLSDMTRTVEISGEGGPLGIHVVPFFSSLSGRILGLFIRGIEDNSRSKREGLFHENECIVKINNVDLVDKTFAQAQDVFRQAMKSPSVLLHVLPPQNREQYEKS
# T9: LIN7A, O14910
# T9 sequence (O14910 103-200, limits assumed, looked up): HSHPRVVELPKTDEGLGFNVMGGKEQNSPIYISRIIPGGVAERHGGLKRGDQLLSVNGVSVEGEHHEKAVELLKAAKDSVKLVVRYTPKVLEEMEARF
# T10: DFNB31_1, Q9P202
# T10 sequence (Q9P202 135-233, limits assumed, looked up): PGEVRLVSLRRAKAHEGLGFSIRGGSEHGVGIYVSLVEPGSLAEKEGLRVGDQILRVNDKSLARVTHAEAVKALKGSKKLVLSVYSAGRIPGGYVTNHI
# Experiments:
# Assay in all cases: holdup assay
# Parameters in all cases: key: below the threshold = too weak to quantify, mostly under pKd 3.1 to 4
# DLG3_1, Q92796 = molecular target: T1, DLG3_1, Q92796
# Inadl_5, Q8NI35 = molecular target: Inadl_5, Q8NI35
# DFNB31_2, Q9P202 = molecular target: T2, DFNB31_2, Q9P202
# MPDZ_5, O75970 = molecular target: T3, MPDZ_5, O75970
# FRMPD1, Q5SYB0 = molecular target: T4, FRMPD1, Q5SYB0
# MAGI1_1, Q96QZ7 = molecular target: MAGI1_1, Q96QZ7
# TJP2_1, Q9UDY2 = molecular target: TJP2_1, Q9UDY2
# IL16_3, Q14005 = molecular target: IL16_3, Q14005
# CASK, O14936 = molecular target: CASK, O14936
# GIPC2, Q8TF65 = molecular target: GIPC2, Q8TF65
# GRASP, Q7Z6J2 = molecular target: GRASP, Q7Z6J2
# GRID2IP_1, A4D2P6 = molecular target: GRID2IP_1, A4D2P6
# SCRIB_1, Q14160 = molecular target: SCRIB_1, Q14160
# NHERF3_1, Q5T2W1 = molecular target: T5, NHERF3_1, Q5T2W1
# MAGI2_2, Q86UL8 = molecular target: MAGI2_2, Q86UL8
# MPDZ_10, O75970 = molecular target: T6, MPDZ_10, O75970
# Inadl_1, Q8NI35 = molecular target: Inadl_1, Q8NI35
# FRMPD2_3, Q68DX3 = molecular target: FRMPD2_3, Q68DX3
# RADIL, Q96JH8 = molecular target: T7, RADIL, Q96JH8
# PDLIM1, O00151 = molecular target: PDLIM1, O00151
# GRIP2_3, Q9C0E4 = molecular target: GRIP2_3, Q9C0E4
# DLG2_3, Q15700 = molecular target: DLG2_3, Q15700
# PARD3B_1, Q8TEW8 = molecular target: T8, PARD3B_1, Q8TEW8
# LIN7A, O14910 = molecular target: T9, LIN7A, O14910
# DFNB31_1, Q9P202 = molecular target: T10, DFNB31_1, Q9P202
# Inadl_10, Q8NI35 = molecular target: Inadl_10, Q8NI35
# MAGI2_3, Q86UL8 = molecular target: MAGI2_3, Q86UL8
# SCRIB_2, Q14160 = molecular target: SCRIB_2, Q14160
# [1] = plain residues with an end cap or a label only (N-terminal biotin on a linker: ttds)
# [2] = plain residues with an end cap or a label only (N-terminal biotin on a linker: ahx)
# Sequence of Inadl_10, Q8NI35 (Q8NI35 1673-1763): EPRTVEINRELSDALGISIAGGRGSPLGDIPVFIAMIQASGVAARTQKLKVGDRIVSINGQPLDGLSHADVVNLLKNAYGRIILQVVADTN
# Sequence of GRID2IP_1, A4D2P6 (A4D2P6 1-87): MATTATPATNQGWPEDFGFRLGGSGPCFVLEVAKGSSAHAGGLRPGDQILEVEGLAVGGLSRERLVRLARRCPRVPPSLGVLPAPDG
# Sequence of MAGI2_2, Q86UL8 (Q86UL8 410-522): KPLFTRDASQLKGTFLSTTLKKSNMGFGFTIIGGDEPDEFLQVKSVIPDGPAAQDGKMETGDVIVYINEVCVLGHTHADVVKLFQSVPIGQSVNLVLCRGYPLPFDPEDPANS
# Sequence of GIPC2, Q8TF65 (Q8TF65 112-203): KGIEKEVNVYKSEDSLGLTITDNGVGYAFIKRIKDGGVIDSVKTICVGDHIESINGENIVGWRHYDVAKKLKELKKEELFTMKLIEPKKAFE
# Sequence of TJP2_1, Q9UDY2 (Q9UDY2 24-128): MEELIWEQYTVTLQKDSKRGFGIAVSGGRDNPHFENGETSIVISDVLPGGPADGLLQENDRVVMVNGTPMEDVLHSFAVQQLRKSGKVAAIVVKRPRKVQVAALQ
# Sequence of SCRIB_1, Q14160 (Q14160 718-814): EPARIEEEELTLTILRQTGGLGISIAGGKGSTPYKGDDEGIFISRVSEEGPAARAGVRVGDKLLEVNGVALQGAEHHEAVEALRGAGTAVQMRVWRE
# Sequence of Inadl_5, Q8NI35 (Q8NI35 673-780): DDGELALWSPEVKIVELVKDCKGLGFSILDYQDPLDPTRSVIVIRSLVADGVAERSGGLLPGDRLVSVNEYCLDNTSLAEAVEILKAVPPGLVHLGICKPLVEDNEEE
# Sequence of IL16_3, Q14005 (Q14005 1107-1207): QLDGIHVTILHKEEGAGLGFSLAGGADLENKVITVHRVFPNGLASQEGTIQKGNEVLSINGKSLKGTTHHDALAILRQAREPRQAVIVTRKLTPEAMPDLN
# Sequence of SCRIB_2, Q14160 (Q14160 857-960): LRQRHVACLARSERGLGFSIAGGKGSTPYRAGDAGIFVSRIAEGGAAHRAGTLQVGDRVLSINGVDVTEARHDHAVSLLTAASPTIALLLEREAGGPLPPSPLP
# Sequence of CASK, O14936 (O14936 487-570): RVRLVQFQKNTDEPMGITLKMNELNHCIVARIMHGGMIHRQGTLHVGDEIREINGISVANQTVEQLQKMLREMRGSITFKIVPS
# Sequence of PDLIM1, O00151 (O00151 1-87): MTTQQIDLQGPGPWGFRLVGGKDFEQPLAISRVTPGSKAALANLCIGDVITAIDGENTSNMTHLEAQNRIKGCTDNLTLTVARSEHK
# Sequence of MAGI1_1, Q96QZ7 (Q96QZ7 1-106): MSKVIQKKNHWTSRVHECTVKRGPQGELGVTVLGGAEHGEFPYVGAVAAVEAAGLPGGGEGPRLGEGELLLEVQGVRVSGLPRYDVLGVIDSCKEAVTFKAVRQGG
# Sequence of GRIP2_3, Q9C0E4 (Q9C0E4 238-339): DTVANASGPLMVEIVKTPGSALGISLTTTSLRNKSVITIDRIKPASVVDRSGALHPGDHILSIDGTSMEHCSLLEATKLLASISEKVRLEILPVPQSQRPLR
# Sequence of FRMPD2_3, Q68DX3 (Q68DX3 1073-1166): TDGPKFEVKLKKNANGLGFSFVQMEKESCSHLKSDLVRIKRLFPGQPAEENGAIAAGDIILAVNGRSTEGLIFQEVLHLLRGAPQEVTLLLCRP
# Sequence of MAGI2_3, Q86UL8 (Q86UL8 600-682): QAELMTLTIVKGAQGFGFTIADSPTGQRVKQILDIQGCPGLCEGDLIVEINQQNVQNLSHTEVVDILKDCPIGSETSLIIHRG
# Sequence of GRASP, Q7Z6J2 (Q7Z6J2 96-193): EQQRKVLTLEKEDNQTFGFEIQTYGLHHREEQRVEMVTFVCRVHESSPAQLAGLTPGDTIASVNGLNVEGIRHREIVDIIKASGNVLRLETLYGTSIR
# Sequence of Inadl_1, Q8NI35 (Q8NI35 113-229): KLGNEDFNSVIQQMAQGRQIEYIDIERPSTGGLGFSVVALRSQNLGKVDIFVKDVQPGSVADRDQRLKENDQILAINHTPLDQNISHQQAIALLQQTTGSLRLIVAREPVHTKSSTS
binder,measurement,setting,value
"NQLAWFDTDL [CTNNB1, P35222]",pKd,"DLG3_1, Q92796; [1]",below the threshold
same,pKd,"Inadl_5, Q8NI35; [1]",below the threshold
same,pKd,"DFNB31_2, Q9P202; [1]",below the threshold
same,pKd,"MPDZ_5, O75970; [1]",below the threshold
same,pKd,"FRMPD1, Q5SYB0; [1]",below the threshold
same,pKd,"MAGI1_1, Q96QZ7; [1]",below the threshold
same,pKd,"TJP2_1, Q9UDY2; [1]",below the threshold
same,pKd,"IL16_3, Q14005; [1]",below the threshold
same,pKd,"CASK, O14936; [1]",below the threshold
same,pKd,"GIPC2, Q8TF65; [1]",3.8
same,pKd,"GRASP, Q7Z6J2; [1]",below the threshold
same,pKd,"GRID2IP_1, A4D2P6; [1]",below the threshold
same,pKd,"SCRIB_1, Q14160; [1]",4.86
same,pKd,"NHERF3_1, Q5T2W1; [1]",3.66
same,pKd,"MAGI2_2, Q86UL8; [1]",below the threshold
same,pKd,"MPDZ_10, O75970; [1]",below the threshold
same,pKd,"Inadl_1, Q8NI35; [1]",below the threshold
same,pKd,"FRMPD2_3, Q68DX3; [1]",below the threshold
same,pKd,"RADIL, Q96JH8; [1]",below the threshold
same,pKd,"PDLIM1, O00151; [1]",4.16
same,pKd,"GRIP2_3, Q9C0E4; [1]",below the threshold
same,pKd,"DLG2_3, Q15700; [1]",below the threshold
same,pKd,"PARD3B_1, Q8TEW8; [1]",below the threshold
same,pKd,"LIN7A, O14910; [1]",below the threshold
same,pKd,"DFNB31_1, Q9P202; [1]",4.28
same,pKd,"Inadl_10, Q8NI35; [1]",below the threshold
same,pKd,"MAGI2_3, Q86UL8; [1]",below the threshold
same,pKd,"SCRIB_2, Q14160; [1]",3.57
"GIFPTLTSPL [SHROOM3, Q8TF72]",pKd,"DLG3_1, Q92796; [2]",below the threshold
same,pKd,"Inadl_5, Q8NI35; [2]",below the threshold
same,pKd,"DFNB31_2, Q9P202; [2]",below the threshold
same,pKd,"MPDZ_5, O75970; [2]",below the threshold
same,pKd,"FRMPD1, Q5SYB0; [2]",below the threshold
same,pKd,"MAGI1_1, Q96QZ7; [2]",below the threshold
same,pKd,"TJP2_1, Q9UDY2; [2]",below the threshold
same,pKd,"IL16_3, Q14005; [2]",below the threshold
same,pKd,"CASK, O14936; [2]",below the threshold
same,pKd,"GIPC2, Q8TF65; [2]",below the threshold
same,pKd,"GRASP, Q7Z6J2; [2]",5.03
same,pKd,"GRID2IP_1, A4D2P6; [2]",below the threshold
same,pKd,"SCRIB_1, Q14160; [2]",below the threshold
same,pKd,"NHERF3_1, Q5T2W1; [2]",4.2
same,pKd,"MAGI2_2, Q86UL8; [2]",below the threshold
same,pKd,"MPDZ_10, O75970; [2]",3.77
same,pKd,"Inadl_1, Q8NI35; [2]",below the threshold
same,pKd,"FRMPD2_3, Q68DX3; [2]",below the threshold
same,pKd,"RADIL, Q96JH8; [2]",below the threshold
same,pKd,"PDLIM1, O00151; [2]",3.61
same,pKd,"GRIP2_3, Q9C0E4; [2]",below the threshold
same,pKd,"DLG2_3, Q15700; [2]",below the threshold
same,pKd,"PARD3B_1, Q8TEW8; [2]",below the threshold
same,pKd,"LIN7A, O14910; [2]",below the threshold
same,pKd,"DFNB31_1, Q9P202; [2]",below the threshold
same,pKd,"Inadl_10, Q8NI35; [2]",below the threshold
same,pKd,"MAGI2_3, Q86UL8; [2]",below the threshold
same,pKd,"SCRIB_2, Q14160; [2]",below the threshold
